Experimental data taken from US20240207432A1 (BIOSION, published 2024).
Substitutions are numbered along the chain they refer to.

T1: human TROP2-his protein (human, UniProt P09758 27-274)
T1 construct: Biotin-labelled in the ELISAs, unlabelled analyte in Biacore; also called biotin-labeled human TROP2-his protein; biotin human Trop2-his
T1 sequence: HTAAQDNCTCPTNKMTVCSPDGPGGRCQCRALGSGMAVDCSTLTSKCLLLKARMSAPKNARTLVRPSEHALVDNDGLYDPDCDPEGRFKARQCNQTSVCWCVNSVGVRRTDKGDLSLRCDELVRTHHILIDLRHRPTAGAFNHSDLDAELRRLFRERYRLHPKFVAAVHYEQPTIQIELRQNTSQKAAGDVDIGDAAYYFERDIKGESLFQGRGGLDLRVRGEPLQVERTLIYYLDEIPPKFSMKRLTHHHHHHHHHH

T2: full length human TROP2 on 293F-TROP2 cells (human, UniProt P09758 27-323)
T2 construct: also called 293F-TROP2 cells (clone ID #3A8); cell surface TROP2
T2 sequence: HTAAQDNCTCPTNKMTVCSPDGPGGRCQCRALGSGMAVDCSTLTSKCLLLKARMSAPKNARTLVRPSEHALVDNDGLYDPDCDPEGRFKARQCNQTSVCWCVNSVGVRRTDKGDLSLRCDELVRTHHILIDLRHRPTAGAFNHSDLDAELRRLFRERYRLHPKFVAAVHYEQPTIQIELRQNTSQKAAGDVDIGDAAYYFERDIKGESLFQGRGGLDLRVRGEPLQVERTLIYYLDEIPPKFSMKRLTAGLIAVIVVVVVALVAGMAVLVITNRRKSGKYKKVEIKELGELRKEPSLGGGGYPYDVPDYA

T3: cynomolgus TROP2-his protein (cynomolgus monkey, UniProt P09758 27-272 (human entry), limits assumed)
T3 construct: no cleavage site is stated; also called Cynomolgus monkey TROP2-his protein; monkey TROP2
T3 chain: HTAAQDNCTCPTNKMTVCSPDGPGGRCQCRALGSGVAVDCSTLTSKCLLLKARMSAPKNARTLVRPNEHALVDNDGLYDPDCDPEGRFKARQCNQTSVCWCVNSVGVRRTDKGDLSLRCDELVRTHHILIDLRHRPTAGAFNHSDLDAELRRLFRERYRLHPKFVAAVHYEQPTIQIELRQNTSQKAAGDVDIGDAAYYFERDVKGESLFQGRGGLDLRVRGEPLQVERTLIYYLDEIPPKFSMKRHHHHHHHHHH

B1: huA1E4F7D4-V2 (antibody, human IgG1, kappa, V domains shown)
VH: QVQLVQSGAEVKKPGASVKVSCKASGYSFTTHWIHWVRQAPGQGLEWIGTIFPSNAYAVYNQKFRDRATMTADRSISTAYIELSRLRSDDTAVYYCARASYFDYWGQGTTVTVSS
VL: EIVLTQSPATLSLSPGERATLSCRASQNIGTSIHWFQQKPGGSPRLLIKYASESISGIPSRFSGSGSGTDFTLTISSLEPEDFAVYYCQHSHSWPFTFGQGTKLEIKR
notes: Positions of the X residues are printed in CLM-00002, CLM-00003 and CLM-00005; Tested as cell supernatant
B2: huA1E4F7D4-V20 (antibody, human IgG1, kappa, V domains shown)
VH: B1 VH with A72R
VL: B1 VL with K49Y
notes: Positions of the X residues are given in the claims; Tested as cell supernatant
B3: huA1E4F7D4-V15 (antibody, human IgG1, kappa, V domains shown)
VH: B1 VH with A72R
VL: B1 VL with S43A
notes: as for B2
B4: huA1E4F7D4-V21 (antibody, human IgG1, kappa, V domains shown)
VH: B1 VH with R74T
VL: B1 VL with K49Y
notes: as for B2
B5: huA1E4F7D4-V18 (antibody, human IgG1, kappa, V domains shown)
VH: B1 VH with S28T
VL: B1 VL with K49Y
notes: as for B2
B6: huA1E4F7D4-V19 (antibody, human IgG1, kappa, V domains shown)
VH: B1 VH with A68V
VL: B1 VL with K49Y
notes: as for B2
B7: huA1E4F7D4-V12 (antibody, human IgG1, kappa, V domains shown)
VH: B1 VH
VL: B1 VL with S43A
notes: as for B2
B8: huA1E4F7D4-V8 (antibody, human IgG1, kappa, V domains shown)
VH: B1 VH with S28T
VL: B1 VL with G42Q
notes: as for B2
B9: huA1E4F7D4-V3 (antibody, human IgG1, kappa, V domains shown)
VH: B1 VH with S28T
VL: B1 VL
notes: as for B2
B10: huA1E4F7D4-V13 (antibody, human IgG1, kappa, V domains shown)
VH: B1 VH with S28T
VL: B1 VL with S43A
notes: as for B2
B11: huA1E4F7D4-V4 (antibody, human IgG1, kappa, V domains shown)
VH: B1 VH with A68V
VL: B1 VL
notes: as for B2
B12: huA1E4F7D4-V14 (antibody, human IgG1, kappa, V domains shown)
VH: B1 VH with A68V
VL: B1 VL with S43A
notes: as for B2
B13: huA1E4F7D4-V9 (antibody, human IgG1, kappa, V domains shown)
VH: B1 VH with A68V
VL: B1 VL with G42Q
notes: as for B2
B14: huA1E4F7D4-V17 (antibody, human IgG1, kappa, V domains shown)
VH: B1 VH
VL: B1 VL with K49Y
notes: as for B2
B15: huA1E4F7D4-V7 (antibody, human IgG1, kappa, V domains shown)
VH: B1 VH
VL: B1 VL with G42Q
notes: as for B2
B16: huA1E4F7D4-V1 (antibody, human IgG1, kappa, V domains shown)
VH: B1 VH with V37M, R38K, A40R, T69I, S84T
VL: B1 VL with E1D, V3L, L78V
notes: Positions of the X residues are printed in CLM-00003 and CLM-00005; Tested as cell supernatant
B17: huA1E4F7D4-V10 (antibody, human IgG1, kappa, V domains shown)
VH: B1 VH with A72R
VL: B1 VL with G42Q
notes: as for B2
B18: huA1E4F7D4-V5 (antibody, human IgG1, kappa, V domains shown)
VH: B1 VH with A72R
VL: B1 VL
notes: as for B2
B19: huA1E4F7D4-V11 (antibody, human IgG1, kappa, V domains shown)
VH: B1 VH with R74T
VL: B1 VL with G42Q
notes: as for B2
B20: huA1E4F7D4-V6 (antibody, human IgG1, kappa, V domains shown)
VH: B1 VH with R74T
VL: B1 VL
notes: as for B2
B21: chimeric C1B3B12D2 (antibody, human IgG1, kappa, V domains shown)
VH: QVQLQQSGPELVRPGTSVKMSCKAAGYTFTKFWIGWVKQRPGHGLEWIGNIYPGGAYINYNENFKGKATLTADTFSSTAYMQLNSLTSADSAIYYCAREGSSGYWGQGTTLTVSS
VL: DIVMTQSPSSLTVTAGEKVTLSCKCSQSLLNSGTQENYLTWYQQKPGQPPKMLIYWASIREPGVPDRFTGSGSGTDFTLTINNVQAEDLAVYYCQHDYSYPFTFGSGTKLEIKR

Assays:
human TROP2-his protein [1] = target: T1, human TROP2-his protein; test: SPR Biacore T200, supernatant antibody captured on anti-human IgG CM5 chip, 40 nM human TROP2-his
Experimental: The goat anti-human IgG (GE healthcare, Cat #BR100839, Human Antibody Capture Kit) was covalently linked to a CM5 chip instead of goat anti-mouse IgG. […] The human TROP2-his protein at the concentration of 40 nM was used instead of serially diluted human TROP2-his protein.

[2] = target: T2, full length human TROP2 on 293F-TROP2 …; test: FACS on 293F-TROP2 cells, MFI
[3] = target: T3, cynomolgus TROP2-his protein; test: indirect ELISA, cynomolgus TROP2-his coated, OD(450-630)
human TROP2-his protein [4] = target: T1, human TROP2-his protein; test: SPR Biacore, antibody captured on anti-human IgG CM5 chip, TROP2-his analyte
Experimental: Un-reacted moieties on the chip (biosensor) surface were blocked with ethanolamine. […] The antigen-antibody association kinetics was followed for 2 minutes and the dissociation kinetics was followed for 10 minutes. The association and dissociation curves were fit to a 1:1 Langmuir binding model using BIAcore evaluation software.

human TROP2-his protein [5] = target: T1, human TROP2-his protein; test: capture ELISA, antibody captured on anti-human IgG Fc coat, biotin human TROP2-his in solution, OD(450-630)
Experimental: Plates were washed once with wash buffer (PBS+0.05% v/v Tween-20, PBST) and then blocked with 200 μl/well blocking buffer (5% w/v non-fatty milk in PBST) for 2 hours at 37° C. […] Plates containing captured anti-TROP2 antibodies were incubated with biotin-labeled human TROP2-his protein (prepared in house, SEQ ID NO: 67, 56.7 ng/mL in 2.5% w/v non-fatty milk in PBST, 100 μl/well) for 40 minutes at 37° C., washed 4 times, and incubated with streptavidin conjugated HRP (1:10000 dilution in PBST, Jackson Immuno Research, Cat #016-030-084, 100 μl/well) for 40 minutes at 37° C. After a final wash, plates were incubated with 100 μl/well ELISA substrate TMB (Innoreagents, Cat #TMB-S-002) at room temperature. The reaction was stopped in 3-10 minutes at room temperature with 50 μl/well 1M H₂SO₄, and the absorbance of each well was read on a microplate reader using dual wavelength mode with 450 nm for TMB and 630 nm as the reference wavelength. The OD (450-630) values were plotted against antibody concentration. Data was analyzed using Graphpad Prism software and EC₅₀ values were reported.
For the capture ELISA, AffiniPure Goat Anti-Human IgG, Fcγ fragment specific (Jackson Immuno Research, Cat #109-005-098) was used instead of AffiniPure Goat Anti-Mouse IgG, Fcγ fragment specific, 100 μl/well.

Binder	Kd (human TROP2-his protein [1])	koff (human TROP2-his protein [1])	kon (human TROP2-his protein [1])	also measured
B1	0.215 nM	0.000188 s⁻¹	874000 M⁻¹ s⁻¹	
B2	0.335 nM	0.00029 s⁻¹	868000 M⁻¹ s⁻¹	
B3	0.359 nM	0.000205 s⁻¹	571000 M⁻¹ s⁻¹	
B4	0.188 nM	0.000271 s⁻¹	1.44e+06 M⁻¹ s⁻¹	
B5	0.23 nM	0.00028 s⁻¹	1.22e+06 M⁻¹ s⁻¹	
B6	0.261 nM	0.000304 s⁻¹	1.16e+06 M⁻¹ s⁻¹	
B7	0.211 nM	0.000192 s⁻¹	909000 M⁻¹ s⁻¹	
B8	0.235 nM	0.000195 s⁻¹	832000 M⁻¹ s⁻¹	
B9	0.238 nM	0.000199 s⁻¹	836000 M⁻¹ s⁻¹	
B10	0.221 nM	0.000199 s⁻¹	898000 M⁻¹ s⁻¹	
B11	0.215 nM	0.00019 s⁻¹	883000 M⁻¹ s⁻¹	
B12	0.232 nM	0.000193 s⁻¹	834000 M⁻¹ s⁻¹	
B13	0.223 nM	0.000193 s⁻¹	865000 M⁻¹ s⁻¹	
B14	0.232 nM	0.000279 s⁻¹	1.2e+06 M⁻¹ s⁻¹	
B15	0.216 nM	0.000192 s⁻¹	887000 M⁻¹ s⁻¹	
B16	0.238 nM	0.000197 s⁻¹	830000 M⁻¹ s⁻¹	
B17	0.314 nM	0.000206 s⁻¹	656000 M⁻¹ s⁻¹	
B18	0.353 nM	0.000204 s⁻¹	577000 M⁻¹ s⁻¹	
B19	0.163 nM	0.000175 s⁻¹	1.08e+06 M⁻¹ s⁻¹	
B20	0.166 nM	0.000179 s⁻¹	1.08e+06 M⁻¹ s⁻¹	
B21				EC50 [2]: 0.81 nM; EC50 [3]: 0.26 nM; Kd (human TROP2-his protein [4]): 0.125 nM; koff (human TROP2-his protein [4]): 9.54e-05 s⁻¹; kon (human TROP2-his protein [4]): 763000 M⁻¹ s⁻¹; EC50 (human TROP2-his protein [5]): 0.111 nM
